B3: Dom34 (Pelota of Saccharomyces cerevisiae) (natural protein, S. cerevisiae, UniProt P33309 1-386, looked up)
chain: MKVISLKKDSFNKGGAVITLLPEDKEDLFTVYQIVDKDDELIFKKKFTSKLDEAGKKKSTDLVKLKIKVISEDFDMKDEYLKYKGVTVTDESGASNVDIPVGKYLSFTLDYVYPFTIIKQNFNKFMQKLLNEACNIEYKSDTAAVVLQEGIAHVCLVTSSSTILKQKIEYSMPKKKRTTDVLKFDEKTEKFYKAIYSAMKKDLNFDKLKTIILCSPGFYAKILMDKIFQYAEEEHNKKILDNKGMFFIAHCSTGYLQGINEVLKNPLYASKLQDTKYSKEIMVMDEFLLHLNKDDDKAWYGEKEVVKAAEYGAISYLLLTDKVLHSDNIAQREEYLKLMDSVESNGGKALVLSTLHSLGEELDQLTGIACILKYPLPDLDEDDGEE

Experiment [1] deals with Rli1 (ABCE1 of Saccharomyces cerevisiae) (S. cerevisiae, UniProt Q03195 1-608). As to the kind of experiment: cryo-EM structure.
Rli1 (ABCE1 of Saccharomyces cerevisiae), sequence (Q03195 whole entry): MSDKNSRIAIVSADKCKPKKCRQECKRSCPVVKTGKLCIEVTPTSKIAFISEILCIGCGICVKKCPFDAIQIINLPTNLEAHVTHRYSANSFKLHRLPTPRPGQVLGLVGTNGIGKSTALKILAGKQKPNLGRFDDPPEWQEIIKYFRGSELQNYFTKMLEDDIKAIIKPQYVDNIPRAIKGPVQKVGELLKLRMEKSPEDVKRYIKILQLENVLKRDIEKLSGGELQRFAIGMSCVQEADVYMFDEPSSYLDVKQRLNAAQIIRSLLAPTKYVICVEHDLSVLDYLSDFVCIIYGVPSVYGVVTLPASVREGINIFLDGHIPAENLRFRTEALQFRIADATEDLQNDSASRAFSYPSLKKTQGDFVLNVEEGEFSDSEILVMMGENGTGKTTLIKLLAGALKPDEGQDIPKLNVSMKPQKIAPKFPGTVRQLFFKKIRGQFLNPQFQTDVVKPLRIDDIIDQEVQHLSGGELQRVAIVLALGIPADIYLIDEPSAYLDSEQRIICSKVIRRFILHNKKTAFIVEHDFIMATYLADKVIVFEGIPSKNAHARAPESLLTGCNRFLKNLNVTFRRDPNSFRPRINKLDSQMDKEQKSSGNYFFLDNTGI
Experiment [2] addresses B3. The experiment is described as follows: cryo-EM structure.

B1: ribosomal protein rpP0 (yeast 60S subunit) (natural protein, UniProt P05317 1-312, looked up)
chain: MGGIREKKAEYFAKLREYLEEYKSLFVVGVDNVSSQQMHEVRKELRGRAVVLMGKNTMVRRAIRGFLSDLPDFEKLLPFVKGNVGFVFTNEPLTEIKNVIVSNRVAAPARAGAVAPEDIWVRAVNTGMEPGKTSFFQALGVPTKIARGTIEIVSDVKVVDAGNKVGQSEASLLNLLNISPFTFGLTVVQVYDNGQVFPSSILDITDEELVSHFVSAVSTIASISLAIGYPTLPSVGHTLINNYKDLLAVAIAASYHYPEIEDLVDRIENPEKYAAAAPAATSAASGDAAPAEEAAAEEEEESDDDMGFGLFD
Consider B1, for which the binding result in experiment [1] is recorded as “binds”.

B2: ribosomal protein rpS30 (yeast 40S subunit) (natural protein, UniProt P0CX33 1-63, looked up)
chain: MAKVHGSLARAGKVKSQTPKVEKTEKPKKPKGRAYKRLLYTRRFVNVTLVNGKRRMNPGPSVQ
Regarding B2, the binding result in experiment [2] is reported as “binds”.

Regarding B3, in experiment [1], the binding result is on record as “binds”.

Values taken from paper PMC6878762 (Nature, 2012).
